Like-named read-outs stand apart in the source and are kept apart here.
T1: Human ornithine decarboxylase (human, UniProt P11926 2-421)
T1 sequence: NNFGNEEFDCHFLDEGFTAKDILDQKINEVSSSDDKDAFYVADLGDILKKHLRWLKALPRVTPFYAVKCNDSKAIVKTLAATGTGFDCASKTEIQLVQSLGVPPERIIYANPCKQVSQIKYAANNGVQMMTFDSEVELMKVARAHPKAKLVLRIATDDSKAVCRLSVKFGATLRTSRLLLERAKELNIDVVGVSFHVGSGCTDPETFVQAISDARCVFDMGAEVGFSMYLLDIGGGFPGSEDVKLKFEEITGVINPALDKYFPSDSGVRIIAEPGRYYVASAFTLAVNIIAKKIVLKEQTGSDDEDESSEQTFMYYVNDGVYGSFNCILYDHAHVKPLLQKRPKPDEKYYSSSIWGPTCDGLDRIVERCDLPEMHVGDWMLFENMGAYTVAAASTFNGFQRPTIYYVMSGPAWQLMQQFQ


Key:
[1] = target: T1, Human ornithine decarboxylase; experiment: cell-based or functional assay
[2] = target: T1, Human ornithine decarboxylase; experiment: AUC; sedimentation velocity, 20 °C, 30 mM Tris-HCl pH 7.4, 25 mM NaCl; ODC fixed at 0.3 mg/mL, AZ 0.02-0.19 mg/mL (AZ/ODC molar ratio 0.25 to 3); all data sets fitted to the AB hetero-association model in SEDPHAT; conditions: both partners purified
[3] = target: T1, Human ornithine decarboxylase; experiment: cell-based or functional assay; remark: listed apart in the source
[4] = target: T1, Human ornithine decarboxylase; experiment: cell-based or functional assay; remark: listed apart in the source
[5] = target: T1, Human ornithine decarboxylase; experiment: AUC; sedimentation velocity, 20 °C, 30 mM Tris-HCl pH 7.4, 25 mM NaCl; ODC fixed at 0.3 mg/mL, AZ 0.02-0.19 mg/mL (AZ/ODC molar ratio 0.25 to 3); all data sets fitted to the AB hetero-association model in SEDPHAT; conditions: both partners purified; remark: listed apart in the source

IC50 of inhibition of ODC enzyme activity by AZ [1]	Kd [2]	IC50 of inhibition of ODC enzyme activity by AZ [3]	IC50 of inhibition of ODC enzyme activity by AZ [4]	Kd [5]	Binder
610 nM	1520 ± 10 nM				AZ3_WT (natural protein, human, UniProt Q9UMX2 1-235, looked up, antizyme 3 (AZ3), human; also called antizyme 3) MPCKRCRPSVYSLSYIKRGKTRNYLYPIWSPYAYYLYCYKYRITLREKMLPRCYKSITYKEEEDLTLQPRSCLQCSESLVGLQEGKSTEQGNHDQLKELYSAGNLTVLATDPLLHQDPVQLDFHFRLTSQTSAHWHGLLCDRRLFLDIPYQALDQGNRESLTATLEYVEEKTNVDSVFVNFQNDRNDRGALLRAFSYMGFEVVRPDHPALPPLDNVIFMVYPLERDVGHLPSEPP
	950 ± 30 nM	550 nM			AZ1_D124S/E150Q/Q166K/N179D (natural protein, antizyme 1 (AZ1), human; also called AZ1_4M) not shown
	220 ± 10 nM	230 nM			AZ1_WT (natural protein, antizyme 1 (AZ1), human; also called antizyme 1) not shown
	1780 ± 20 nM	490 nM			AZ1_D124S/E150Q/Q166K/H171S/N179D (natural protein, antizyme 1 (AZ1), human; also called AZ1_5M; AZ1_D124S/E150Q/Q166K/N179D/H171S) not shown
			160 nM	1150 ± 10 nM	AZ_(95–228) (domain or fragment, also called C-terminal domain of AZ1) not shown
			310 nM	3030 ± 20 nM	AZ_(95–228)_K178A (domain or fragment) not shown
			300 nM	1730 ± 20 nM	AZ_(95–228)_E165A (domain or fragment) not shown
				11500 ± 600 nM	AZ_(95–228)_E142A/H171A/K178A (domain or fragment, also called non-α1 mutant) not shown
			400 nM	1210 ± 10 nM	AZ_(95–228)_K153A (domain or fragment) not shown
			250 nM	1110 ± 10 nM	AZ_(95–228)_E161A (domain or fragment) not shown
			300 nM	1680 ± 10 nM	AZ_(95–228)_E164A (domain or fragment) not shown
				12400 ± 700 nM	AZ_(95–228)_E142A/K153A/D154A/E161A/E164A/E165A/H171A/K178A (domain or fragment, also called hybrid octuple mutant) not shown
			310 nM	2200 ± 20 nM	AZ_(95–228)_E142A (domain or fragment) not shown
			4130 nM	6580 ± 20 nM	AZ_(95–228)_K153A/E164A/E165A (domain or fragment) not shown
				6810 ± 60 nM	AZ_(95–228)_K153A/D154A/E161A/E164A/E165A (domain or fragment) not shown
			270 nM	1700 ± 20 nM	AZ_(95–228)_D154A (domain or fragment) not shown
			270 nM	2030 ± 20 nM	AZ_(95–228)_H171A (domain or fragment) not shown

Source: paper PMC6995573, “Critical Factors in Human Antizymes that Determine the Differential Binding, Inhibition, and Degradation of Human Ornithine Decarboxylase” (Biomolecules, 2019)
